Test results published in patent US20180305451A1 (COMPUGEN, published 2018).
Where two headings read alike, the source gives them in different places.

Experiments:
human HIDE1-flag = molecular target: T1, human HIDE1-flag (human, UniProt A8MVS5 20-230); test: FACS, HEK293 human HIDE1 Flag cells vs HEK293 empty vector, goat anti-human IgG F(ab')2-PE
T1 construct: Over-expressed on HEK293, SK-MEL-5, CHO-S and CHO-S OKT3 cells (pMSCV or pcDNA3.1); whole cell extracts in WB; Entry includes the signal peptide; also called hHIDE1 Flag
T1 sequence: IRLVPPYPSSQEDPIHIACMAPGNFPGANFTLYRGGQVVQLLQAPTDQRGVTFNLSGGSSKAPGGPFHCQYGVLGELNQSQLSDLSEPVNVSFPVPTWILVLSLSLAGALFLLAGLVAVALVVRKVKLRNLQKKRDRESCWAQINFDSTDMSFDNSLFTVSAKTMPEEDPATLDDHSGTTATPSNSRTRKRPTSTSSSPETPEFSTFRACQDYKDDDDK

[1] = molecular target: T2, HIDE1_HH-1 (Human ECD + human IgG1 Fc mutated C220S at hinge), without SP (human); test: BLI Octet RED384, bivalent Fab-A-FH
T2 construct: Batch #280 in the Serotec and phage display work; also called HIDE1 hECD-hIg; HIDE1 (H:H) recombinant Fc fusion protein
T2 sequence (chain, as listed by the source C220S C220S limits assumed): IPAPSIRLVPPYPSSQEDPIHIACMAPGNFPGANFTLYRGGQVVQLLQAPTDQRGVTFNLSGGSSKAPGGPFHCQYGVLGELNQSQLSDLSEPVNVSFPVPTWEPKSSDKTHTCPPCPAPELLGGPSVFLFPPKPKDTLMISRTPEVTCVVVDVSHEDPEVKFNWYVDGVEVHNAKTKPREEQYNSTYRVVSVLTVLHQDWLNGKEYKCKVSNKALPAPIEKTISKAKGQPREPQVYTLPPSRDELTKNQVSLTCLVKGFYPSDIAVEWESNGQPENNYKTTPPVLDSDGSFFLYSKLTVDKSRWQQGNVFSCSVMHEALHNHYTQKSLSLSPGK

[2] = molecular target: T2, HIDE1_HH-1 (Human ECD + human IgG1 Fc …); test: SPR (ProteOn XPR 36): HIDE1-HH-1 captured on goat anti-human Fc GLC chip, Fab periplasmic extract injected 2 min, undiluted and 3-fold dilutions, 10 min dissociation
Experimental: A high density goat anti-human Fc antibody (Invitrogen) was immobilized by standard amine coupling over all lanes of a GLC chip using a ProteOn XPR 36 biosensor (Biorad). This surface was used to capture the recombinant HIDE1-H:H fusion protein (GenScript Lot 393383-21, batch #280) or a control Fc fusion protein (CD155, Sino Biologicals) in the vertical flow-cell direction at a concentration of ˜0.5 μg/mL for 90 seconds.
Each anti-HIDE1 Fab PPE sample was then injected at three concentrations (undiluted fab supernatant and two three-fold serial dilutions) in the horizontal direction over the captured fusion proteins. The dilutions were made using degassed PBS with 0.05% Tween 20 and 0.01% BSA. PPEs were injected for two minutes followed by 10 minutes of dissociation at a flow rate of 50 μL/min. The starting concentration range for each Fab is recorded in Table 39. The anti-human fc capture surfaces were regenerated with two 30-second pulses of 146 mM phosphoric acid after each cycle.

mouse HIDE1 Flag [3] = molecular target: T3, mouse HIDE1 Flag (mouse, UniProt Q75VT8 22-222); test: Western blot of whole cell extracts, goat anti-mouse HRP
T3 construct: Over-expressed on HEK293 and EL4 cells (pMSCV); whole cell extracts in WB; also called mHIDE1 flag; not shown: Flag tag
T3 sequence: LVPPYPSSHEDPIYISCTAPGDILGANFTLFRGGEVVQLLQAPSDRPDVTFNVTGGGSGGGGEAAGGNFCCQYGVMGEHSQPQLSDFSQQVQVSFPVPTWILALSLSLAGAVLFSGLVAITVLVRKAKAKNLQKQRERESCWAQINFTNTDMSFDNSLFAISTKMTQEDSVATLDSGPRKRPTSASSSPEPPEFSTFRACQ

human HIDE1 [4] = molecular target: T4, human HIDE1 (human, UniProt A8MVS5 20-230); test: FACS, HL-60 cells transfected with scrambled siRNA
T4 construct: Endogenous on U937, HL-60, THP-1 cells, blood monocytes, AML blasts and dendritic cells; also called C19orf38; hHIDE1
T4 sequence: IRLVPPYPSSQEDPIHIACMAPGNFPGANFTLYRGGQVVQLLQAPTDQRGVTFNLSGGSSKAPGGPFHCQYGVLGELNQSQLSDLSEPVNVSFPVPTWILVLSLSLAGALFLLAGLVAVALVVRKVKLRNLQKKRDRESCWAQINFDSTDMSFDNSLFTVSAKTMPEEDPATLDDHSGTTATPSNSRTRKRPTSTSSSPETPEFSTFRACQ

human HIDE1 [5] = molecular target: T4, human HIDE1; test: FACS, HL-60 cells transfected with HIDE1 siRNA
human HIDE1 [6] = molecular target: T4, human HIDE1; test: FACS, HL-60 cells
human HIDE1 [7] = molecular target: T4, human HIDE1; test: FACS, THP1 cells transfected with HIDE1 siRNA, AF647 conjugate
Experimental: Confirmation of HIDE1 endogenous expression was also tested in THP1 cells transfected with HIDE1 siRNA as described in M&M section. Analysis of human HIDE1 membrane expression in the siRNA transfected cells was performed by FACS. As shown in FIG. 31 membrane expressions of human HIDE1 protein is reduced in cells transfected with HIDE1 siRNA (green) as compared to cells transfected with scrambled siRNA (orange).

human HIDE1 [8] = molecular target: T4, human HIDE1; test: FACS, THP1 cells
human HIDE1 [9] = molecular target: T4, human HIDE1; test: FACS, U937 cells transfected with scrambled siRNA
human HIDE1 [10] = molecular target: T4, human HIDE1; test: FACS, U937 cells
mouse HIDE1 Flag [11] = molecular target: T3, mouse HIDE1 Flag; test: Western blot of whole cell extracts, goat anti-mouse HRP; remark: listed apart in the source
human HIDE1 [12] = molecular target: T4, human HIDE1; test: FACS, U937 cells transfected with HIDE1 siRNA
human HIDE1 [13] = molecular target: T4, human HIDE1; test: FACS, CD14+ cells of human PBMCs, Alexa 647 conjugate
Experimental: The following antibodies were used. […] Brilliant violet 510 labeled anti-CD3 (Biolegend, cat. 344828), PE-labeled anti-CD14 (Biolegend, cat. 301806) and PercP-labeled anti-CD19 (Biolegend, cat. 302228).
PBMCs cells were thawed and stained with viability dye (BD Horizon; Cat#562247, BD biosciences), washed and pre-blocked with Fc blocking solution (cat#422302, Biolegend; 1:20) and/or human Ig Fc (Jackson; 200 μg/ml; cat#009-000-008) to avoid nonspecific binding via Fc receptors. Cells were then stained with anti-hHIDE1 mAbs or mIgG1 isotype control in the presence or absence of lymphocytes or monocytes surface marker. All samples were run on a MACSQuant analyzer (Miltenyi) and data was analyzed using Tree Star FlowJo software. Cells were first gated for lymphocytes or monocyte (FSC-A vs. SSC-A), and further gated for live cells before analyzed for HIDE1 expression by flow cytometry.

B1: αhHIDE1_AbD25753.1_Ser_Fab (Fab)
heavy: EVQLVQSGAEVKKPGESLKISCKGSGYSFTNYWIHWVRQMPGKGLEWMGIIDPGNSFTRYSPSFQGQVTISADKSISTAYLQWSSLKASDTAMYYCARGDGLYGGSDGYSMGGFDNWGQGTLVTVSSASTKGPSVFPLAPSSKSTSGGTAALGCLVKDYFPEPVTVSWNSGALTSGVHTFPAVLQSSGLYSLSSVVTVPSSSLGTQTYICNVNHKPSNTKVDKKVEPKSEFKAEMPVLENRAAQGDITTPGGARRLTGDQTAALRDSLSDKPAKNIILLIGDGMGDSEITAARNYAEGAGGFFKGIDALPLTGQYTHYALNRKTGKPDYVTSSAASATAWSTGVKTYNGALGVDIHEKDHPTILEMAKAAGLATGNVSTAELQDATPAALVAHVTSRKCYGPSATSEKCPGNALEKGGKGSITEQLLNARADVTLGGGAKTFAETATAGEWQGKTLREQAQARGYQLVSDAASLNSVTEANQQKPLLGLFADGNMPVRWLGPKATYHGNIDKPAVTCTPNPQRNDSVPTLAQMTDKAIELLSKNEKGFFLQVEGASIDKQDHAANPCGQIGETVDLDEAVQRALEFAKKEGNTLVIVTADHAHASQIVAPDTKAPGLTQALNTKDGAVMVMSYGNSEEDSQEHTGSQLRIAAYGPHAANVVGLTDQTDLFYTMKAALGLKGAPDYKDDDDKGAPHHHHHH
light: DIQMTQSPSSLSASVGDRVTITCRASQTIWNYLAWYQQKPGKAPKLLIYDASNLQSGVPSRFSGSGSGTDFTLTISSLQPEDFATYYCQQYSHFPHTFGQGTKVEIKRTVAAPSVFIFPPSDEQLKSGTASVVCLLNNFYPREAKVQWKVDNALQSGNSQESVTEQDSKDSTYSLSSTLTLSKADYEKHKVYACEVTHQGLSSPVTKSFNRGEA
notes: Serotec HuCAL Fab-A-FH
FACS analysis (GeoMean fold) human HIDE1/empty vector (human HIDE1-flag): 150 fold
Kd [1]: 0.07 nM
koff [1]: 4.45e-05 s⁻¹

B2: αhHIDE1_AbD25754.1_Ser_Fab (Fab)
heavy: QVQLVQSGAEVKKPGASVKVSCKASGYTFSGYGMHWVRQAPGQGLEWMGIISPSNGNTNYAQKFQGRVTMTRDTSISTAYMELSRLRSEDTAVYYCAREVYYGLDVWGQGTLVTVSSASTKGPSVFPLAPSSKSTSGGTAALGCLVKDYFPEPVTVSWNSGALTSGVHTFPAVLQSSGLYSLSSVVTVPSSSLGTQTYICNVNHKPSNTKVDKKVEPKSEFKAEMPVLENRAAQGDITTPGGARRLTGDQTAALRDSLSDKPAKNIILLIGDGMGDSEITAARNYAEGAGGFFKGIDALPLTGQYTHYALNRKTGKPDYVTSSAASATAWSTGVKTYNGALGVDIHEKDHPTILEMAKAAGLATGNVSTAELQDATPAALVAHVTSRKCYGPSATSEKCPGNALEKGGKGSITEQLLNARADVTLGGGAKTFAETATAGEWQGKTLREQAQARGYQLVSDAASLNSVTEANQQKPLLGLFADGNMPVRWLGPKATYHGNIDKPAVTCTPNPQRNDSVPTLAQMTDKAIELLSKNEKGFFLQVEGASIDKQDHAANPCGQIGETVDLDEAVQRALEFAKKEGNTLVIVTADHAHASQIVAPDTKAPGLTQALNTKDGAVMVMSYGNSEEDSQEHTGSQLRIAAYGPHAANVVGLTDQTDLFYTMKAALGLKGAPDYKDDDDKGAPHHHHHH
light: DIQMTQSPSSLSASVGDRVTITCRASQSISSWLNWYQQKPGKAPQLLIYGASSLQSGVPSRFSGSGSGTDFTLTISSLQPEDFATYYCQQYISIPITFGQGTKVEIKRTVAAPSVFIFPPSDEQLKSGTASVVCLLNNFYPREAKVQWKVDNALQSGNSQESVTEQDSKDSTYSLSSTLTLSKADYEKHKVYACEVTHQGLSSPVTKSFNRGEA
modifications: Fab-A-FH format: the Fd chain carries bacterial alkaline phosphatase (which dimerises it, making the Fab bivalent), then FLAG and His6; all of these are in the letters.
notes: Serotec HuCAL Fab-A-FH; also called Ab332
FACS analysis (GeoMean fold) human HIDE1/empty vector (human HIDE1-flag): 145 fold
Kd [1]: 0.1 nM
koff [1]: 6.09e-05 s⁻¹

B3: B09 S404-01.C08 (Fab, V domains shown)
VH: QVQLVESGGGVVQPGRSLRLSCAASGFTFSSYAMHWVRQAPGKGLEWVAVISYDGSNKYYADSVKGRFTISRDNSKNTLYLQMNSLRAEDTAVYYCARSSGSSWSNIAYWGQGTLVTVSS
VL: QSVLTQPPSVSGAPGQRVTISCIGSSSNIGAGYDVHWYRQLPGTAPKLLIYDNTNRPSGVPDRFSASKSGISASLAITGLQAEDEADYYCQSYDSNLSGVFGGGTQLTVL
notes: Fab form of CPA.12.012 (IgG4 form is m55); complex kinetics; copies: 1 + 1
binding result [2]: binds

B4: Mouse anti human HIDE1 mAb (Biotem #39A7-3A10-3G8) (antibody, mouse IgG1, kappa, V domains shown)
VH: QVQLQQSGAELVRPGASVKLSCKALGYTFTDYEMHWVKQTPVHGLEWIGDIYPGSGGTAYNQKFKGKATLTADKSSSTAYMELSSLTSEDSAVYYCTRKGRSFAYWGQGTLVTVSA
VL: NIVMTQSPKSMSMSVGERVTLSCKASENVDTYVSWYQQKPEQSPKLLIYGASNRYTGVPDRFTGSGSATDFTLIISSVQAEDLADYHCGQSYRYPLTFGAGTKLELKR
notes: Mouse IgG1; also called 39A7-39A10-3G8
binding result (mouse HIDE1 Flag [3]): no binding (tested: 2 µg/ml)

B5: Mouse anti human HIDE1 mAb (Biotem #33B4-2F7) (antibody, mouse IgG1, kappa, V domains shown)
VH: QIQLVQSGPELKKPGETVKISCKASGYTFTNYGMNWVKQAPGKGLKWMGWINTYTGEPTYADDFKGRFAFSLETPASTAYLQINNLKNEDMATYFCVREHFYALDYWGQGTSVTVSS
VL: KIVLTQSPASLAVSLRQRATISCRASESVDSYGNSFMHWYQQKPGQPPKLLIYRASNLESGVPARFSGSGSRTDFTLTIDPVEADDAATYYCQQSNEDPRTFGGGTKLEIKR
notes: Mouse IgG1; also called Ab-364
fold change (anti HIDE1 vs. isotype control) (human HIDE1 [4]): 5.2 fold
fold change (anti HIDE1 vs. isotype control) (human HIDE1 [5]): 3 fold
FACS (fold change from isotype) (human HIDE1 [6]): 4 fold
fold change (anti HIDE1 vs. isotype control) (human HIDE1 [7]): 1.9 fold
FACS (fold change from isotype) (human HIDE1 [8]): 3 fold
fold change (anti HIDE1 vs. isotype control) (human HIDE1 [9]): 17.7 fold
FACS (fold change from isotype) (human HIDE1 [10]): 14 fold
binding result (mouse HIDE1 Flag [11]): no binding (tested: 2 µg/ml)
fold change (anti HIDE1 vs. isotype control) (human HIDE1 [12]): 7 fold
staining, folds over isotype control (human HIDE1 [13]): ~3 fold
